Legend:
Conditions in all cases: remark: other sources report otherwise
[1] = biological target: recombinant soluble homotrimeric HA of A/California/4/09 (H1N1) (Influenza A virus A/California/04/2009(H1N1)); experiment: trimeric HA microarray, transfection supernatant set 3
[2] = biological target: recombinant soluble homotrimeric HA of A/Anhui/1/05 (H5N1) (Influenza A virus A/Anhui/1/2005(H5N1)); experiment: as above
[3] = biological target: recombinant soluble homotrimeric HA of A/chicken/Vietnam/NCVD-016/08 (H5N1) (Influenza A virus A/chicken/Vietnam/NCVD-016/2008(H5N1)); experiment: as above
[4] = biological target: recombinant soluble homotrimeric HA of A/Japan/305/57 (H2N2) (Influenza A virus A/Japan/305/1957(H2N2)); experiment: as above
[5] = biological target: recombinant soluble homotrimeric HA of A/Egypt/3300-NAMRU3/08 (H5N1) (Influenza A virus A/Egypt/3300-NAMRU3/2008(H5N1)); experiment: as above
[6] = biological target: recombinant soluble homotrimeric HA of A/South Carolina/1/18 (H1N1) (Influenza A virus A/South Carolina/1/18 (H1N1)); experiment: as above
[7] = biological target: recombinant soluble homotrimeric HA of A/Solomon Islands/3/06 (H1N1) (Influenza A virus A/Solomon Islands/3/2006(H1N1)); experiment: as above
[8] = biological target: recombinant soluble homotrimeric HA of A/Indonesia/5/05 (H5N1) (Influenza A virus A/Indonesia/5/2005(H5N1)); experiment: as above
[9] = biological target: recombinant soluble homotrimeric HA of A/Vietnam/1203/04 (H5N1) (Influenza A virus A/VietNam/1203/2004(H5N1)); experiment: as above
[10] = biological target: recombinant soluble homotrimeric HA of A/Netherlands/219/03 (H7N7) (Influenza A virus A/Netherlands/219/03(H7N7)); experiment: as above
[11] = biological target: recombinant soluble homotrimeric HA, A/Netherlands/219/03 H7N7 (Influenza A virus A/Netherlands/219/03(H7N7)); experiment: microarray, transfection SN IgG, trimeric HA
[12] = biological target: recombinant soluble homotrimeric HA of A/swine/Ontario/01911-2/99 (H4N6) (Influenza A virus A/Swine/Ontario/01911-2/99 (H4N6)); experiment: trimeric HA microarray, transfection supernatant set 2
[13] = biological target: recombinant soluble homotrimeric HA of A/duck/Yangzhou/02/05 (H8N4) (Influenza A virus A/duck/Yangzhou/02/2005(H8N4)); experiment: as above
[14] = biological target: recombinant soluble homotrimeric HA of A/Wisconsin/67/05 (H3N2) (Influenza A virus A/Wisconsin/67/2005(H3N2)); experiment: as above
[15] = biological target: recombinant soluble homotrimeric HA of A/northern shoveler/California/HKWF115/07 (H6) (Influenza A virus A/northern shoveler/California/HKWF115/2007(H6N1)); experiment: as above
[16] = biological target: recombinant soluble homotrimeric HA of A/Hong Kong/1073/99 (H9N2) (Influenza A virus A/Hong Kong/1073/99 (H9N2)); experiment: as above
[17] = biological target: recombinant soluble homotrimeric HA of A/Hong Kong/2108/03 (H9N2) (Influenza A virus A/HK/2108/2003(H9N2)); experiment: as above

Row | Binder | Trimeric HA Binding: RLU [1] [RLU] | Trimeric HA Binding: RLU [2] [RLU] | Trimeric HA Binding: RLU [3] [RLU] | Trimeric HA Binding: RLU [4] [RLU] | Trimeric HA Binding: RLU [5] [RLU] | Trimeric HA Binding: RLU [6] [RLU] | Trimeric HA Binding: RLU [7] [RLU] | Trimeric HA Binding: RLU [8] [RLU] | Trimeric HA Binding: RLU [9] [RLU] | Trimeric HA Binding: RLU [10] [RLU] | Trimeric HA Binding: RLU [11] [RLU] | Trimeric HA Binding: RLU [12] [RLU] | Trimeric HA Binding: RLU [13] [RLU] | Trimeric HA Binding: RLU [14] [RLU] | Trimeric HA Binding: RLU [15] [RLU] | Trimeric HA Binding: RLU [16] [RLU] | Trimeric HA Binding: RLU [17] [RLU]
1 | TCN-504 (3251_K17) (antibody, V domains shown) VH: QVQLQESGPGLVKPSETLSLTCAVSGVSISNIDFYWGWIRQPPGKGLEWIGNIYYTGITFYNPSLSSRVAISIDTSKNQFSLTLTSVTAADTAMYYCARHYGDSEAINDAFDIWGQGTMLTVSS VL: EIVMTQSPATLSVSPGERATLSCRASQSVGNSLAWYQQRPGQAPRLLIYGASTRATGIPPRFSGSGSGTEFTLTISSLQTEDFAVYYCQQYINWRPLSFGGGTKVEIK | 18600 | 30000 | 10300 | 36000 | 18000 | 27600 | 32700 | 18600 | 13300 | 19600 | 30600 | 32500 | 17800 | 21600 | – | – | –
2 | TCN-523 (5248_A17) (antibody, V domains shown) VH: QVQLVQSGAEVKKPGSSVKVSCKASGGSFSNYAFSWVRQAPGQGLEWMGGTIPLLGTTNYAQKFQGRVTISADQFTSTAYMELGSLRSEDTAVYYCTRRKMTTAFDSWGQGTLVTVSS VL: QPVLTQPPSASASLGASVTLTCTLSSAYSNYKVDWYQQRPGKGPRFVMRVGTGGIVGSKGDGIPDRFSVLGSGLNRYLTIKNIQEEDESDYHCGADHGSGSNFVSPYVFGGGTKLTVL | 19400 | 546 | 18900 | 4550 | 29100 | 23700 | 11000 | 22000 | 22100 | 3140 | – | – | – | – | 21200 | 31300 | 18
3 | TCN-530 (5248_H10a) (antibody, V domains shown) VH: QVQLVQSGAEVRKPGSSVKVSCKASGGPFMSYAIGWVRQAPGQGLEWMGGINPVFGRPHYAQKFQGRVTIATDDSTKTSYMELSSLTSEDTGMYYCASRYSRSSPGTFESWGQGTLVTVSS VL: EIVMTQFPATLSVSPGERVTLSCRASQSVSNNLAWYQQKPGQPPRLLIYDASTRATGVPAKFSGTGSGTEFTLSISSLQSEDFAVYYCQQYHNWPPSYSFGLGTKLEIK | 21200 | 97 | 18000 | 5170 | 25500 | 17200 | 13800 | 25500 | 25200 | 118 | – | – | – | – | – | – | –
4 | TCN-563 (5237_B21) (antibody, V domains shown) VH: QVQLAQSGAEVKRPGSSVKVSCTASGGIFRKNAISWVRQAPGQGLEWMGGIIAVFNTANYAQKFQGRVKITADESGNTAYMELSSLRSDDTAVYYCASHPKYFYGSGSYPDFWGQGTLVTVSS VL: QSALTQPRSVSGSPGQSVTISCTGSSSDVGASNSVSWYQQHPGKAPKLVIYDVTERPSGVPHRFSGSKSGNTASLTVSGLQPEDEADYFCCAYGGKYLVVFGGGTKVTVL | – | – | – | – | – | – | – | – | – | – | – | 2250 | 6280 | 23700 | 21900 | 49200 | 364

Source: US20150086555A1
